Source: paper PMC3020112 (The EMBO Journal, 2010)
“And” between values parts separate entries of the source, which are not always exact repeats. Equal entries are not always repeated. Where two headings read alike, the source gives them in different places.

B4: SlmA (synthetic lethal with a defective Min system) (natural protein)
chain: MAEKQTAKRNRREEILQSLALMLESSDGSQRITTAKLAASVGVSEAALYRHFPSKTRMFDSLIEFIEDSLITRINLILKDEKDTTARLRLIVLLLLGFGERNPGLTRILTGHALMFEQDRLQGRINQLFERIEAQLRQVLREKRMREGEGYTTDETLLASQILAFCEGMLSRFVRSEFKYRPTDDFDARWPLIAAQLQ
B5: FtsZ, full length (E. coli) (natural protein)
chain: MFEPMELTNDAVIKVIGVGGGGGNAVEHMVRERIEGVEFFAVNTDAQALRKTAVGQTIQIGSGITKGLGAGANPEVGRNAADEDRDALRAALEGADMVFIAAGMGGGTGTGAAPVVAEVAKDLGILTVAVVTKPFNFEGKKRMAFAEQGITELSKHVDSLITIPNDKLLKVLGRGISLLDAFGAANDVLKGAVQGIAELITRPGLMNVDFADVRTVMSEMGYAMMGSGVASGEDRAEEAAEMAISSPLLEDIDLSGARGVLVNITAGFDLRLDEFETVGNTIRAFASDNATVVIGTSLDPDMNDELRVTVVATGIGMDKRPEITLVTNKQVQQPVMDRYQQHGMAPLTQEQKPVAKVVNDNAPQTAKEPDYLDIPAFLRKQAD

Key:
[1] = molecular target: T1, SlmA (Escherichia coli, UniProt P0C093 1-198); assay: fluorescence polarization
T1 sequence: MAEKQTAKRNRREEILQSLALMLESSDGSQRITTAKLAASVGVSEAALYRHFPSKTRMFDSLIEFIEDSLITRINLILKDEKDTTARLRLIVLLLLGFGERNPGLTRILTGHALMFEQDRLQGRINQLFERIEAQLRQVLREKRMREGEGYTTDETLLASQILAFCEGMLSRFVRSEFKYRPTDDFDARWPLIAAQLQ

[2] = molecular target: B5; assay: fluorescence polarisation
[3] = molecular target: the molecule itself; assay: SEC
[4] = molecular target: B5; assay: fluorescence polarisation; remark: listed apart in the source
[5] = molecular target: B4; assay: SAXS
[6] = molecular target: the molecule itself; assay: SAXS
[7] = molecular target: T2, SlmA (synthetic lethal with a defective Min system) (E. coli), P0C093; assay: fluorescence polarisation; settings: remark: other sources report otherwise
T2 chain: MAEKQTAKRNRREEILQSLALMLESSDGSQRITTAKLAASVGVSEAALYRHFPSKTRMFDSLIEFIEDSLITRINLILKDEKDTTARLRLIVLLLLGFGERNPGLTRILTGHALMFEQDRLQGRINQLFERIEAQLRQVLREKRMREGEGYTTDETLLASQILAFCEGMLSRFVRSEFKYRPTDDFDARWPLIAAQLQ

B1: randomized DNA 1 (dsDNA)
DNA 1: AGTCTATAGACT
DNA 2: AGTCTATAGACT
**Q.** Does B1 bind [1]?
**A.** no binding

B2: SBS position 3 G to A (symmetric double mutant) (dsDNA)
DNA 1: GTAAGTACTTAC
DNA 2: GTAAGTACTTAC
**Q.** B2 was tested. Which Kd [1] did it give?
**A.** ~60 nM

B3: randomized DNA 2 (dsDNA)
DNA 1: CCTCAGCTGAGG
DNA 2: CCTCAGCTGAGG
**Q.** Does B3 bind [1]?
**A.** no binding

**Q.** With B4 as the binder, how does the Kd [2] read?
**A.** 119 ± 11 nM

**Q.** And the “stoichiometry N” value [3]?
**A.** 2

**Q.** And the Kd [4]?
**A.** 142 nM and 130 nM and 205 nM

**Q.** Which results are given for B5?
**A.** stoichiometry N [5]: 1 SlmA:FtsZ; binding result [6]: binds

B6: C-terminal truncated FtsZ, FtsZ(1–360), P0A9A6 1-360 (domain or fragment)
chain: MFEPMELTNDAVIKVIGVGGGGGNAVEHMVRERIEGVEFFAVNTDAQALRKTAVGQTIQIGSGITKGLGAGANPEVGRNAADEDRDALRAALEGADMVFIAAGMGGGTGTGAAPVVAEVAKDLGILTVAVVTKPFNFEGKKRMAFAEQGITELSKHVDSLITIPNDKLLKVLGRGISLLDAFGAANDVLKGAVQGIAELITRPGLMNVDFADVRTVMSEMGYAMMGSGVASGEDRAEEAAEMAISSPLLEDIDLSGARGVLVNITAGFDLRLDEFETVGNTIRAFASDNATVVIGTSLDPDMNDELRVTVVATGIGMDKRPEITLVTNKQVQQPVMDRYQQHGMAPLTQEQKPVAKVVND
**Q.** For B6, which Kd [7] is on record?
**A.** 148 nM
